Experimental data reported in PMC10257199.
Read-outs that look alike come from different tables or passages of the source.

Legend:
[1] = molecular target: MBP-Vpu fusion protein (His8-MBP-linker-full-length HIV-1 Vpu, Q36C) (HIV-1); assay: SEC
[2] = molecular target: MBP-Vpu fusion protein (His8-MBP-linker-full-length HIV-1 Vpu, Q36C) (HIV-1); assay: SEC; remark: listed apart in the source
[3] = molecular target: MBP-Vpu fusion protein spin-labeled at residue Q36C (HIV-1); assay: DEER
[4] = molecular target: MBP-Vpu fusion protein spin-labeled at residue Q36C (HIV-1); assay: DEER; remark: listed apart in the source
[5] = molecular target: MBP-Vpu fusion protein spin-labeled at residue Q36C (HIV-1); assay: DEER; remark: listed apart in the source

Substance	stoichiometry N [1]	stoichiometry N [2]	DEER modulation depth [3]	stoichiometry N [4]	DEER modulation depth [5]	stoichiometry N [5]
MBP-Vpu fusion protein (His8-MBP-linker-full-length HIV-1 Vpu, Q36C)	5	5				
MBP-Vpu fusion protein spin-labeled at residue Q36C			0.56	5	0.24	> 3
